Results on 18 sequences are retold here after the supplement of paper PMC12764529.

± gives the half width of the 95% confidence interval.

Data set [1] can be described thus: folding stability dG unfold from trypsin proteolysis; higher = more stable. The method in brief:
(§1)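 Sequencing followed digestion of designed mini-proteins with trypsin and chymotrypsin, each at 11 concentrations in threefold dilutions together with a no-protease condition. The mini-proteins were under 80 residues, had no cysteine, sat in a PA-tagged cDNA display construct, and were kept only if AlphaFold2 dimer inter-PAE was above 15. From the counts, Bayesian fitting gave K50, and unfolding free energy was derived against a sequence-predicted unfolded-state K50 and a shared folded-state K50, per protease or combined.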

A short description of data set [2]: folding stability dG unfold from chymotrypsin proteolysis; higher = more stable. The method in brief:
as §1

Data set [3] in a line: folding stability dG unfold (combined trypsin and chymotrypsin); higher = more stable. The method in brief:
as §1

“SAGGGSATLVGIFPEKGYLVVLTITTDGDDFSIGELKVTFEPLDDDSVKATFYTPSGQKHDAIGLPVASAGG [r13_515_TrMRF]”: the “folding stability dG unfold” value in data set [1] was 1.54 ± 0.053 kcal/mol; in data set [2], 1.42 ± 0.1 kcal/mol; in data set [3] it was 1.46 ± 0.059 kcal/mol.

As for “SAGGGSLEKIREAGKKGYLVRIELETGERRVIPIEDLIRDPRFGPDVPLAELRVRRIELLPPDDGLPLSAGG [r13_587_TrMRF]”, the “folding stability dG unfold” value in data set [1] was found to be 1.27 ± 0.036 kcal/mol; in data set [2], 0.889 ± 0.069 kcal/mol; in data set [3], 1.13 ± 0.062 kcal/mol.

With “SAGGGSMAASSVTSEEKPLPDGSSLSIPEITRPDNVATLTVEYYDPKTGTKYTFTLTIPISPDDTVTLSAGG [r13_190_JUSTAS]”, the “folding stability dG unfold” value in data set [1] was found to be 1.79 ± 0.086 kcal/mol; in data set [2], 1.97 ± 0.06 kcal/mol; in data set [3] it was 1.99 ± 0.15 kcal/mol.

Regarding “SAGGGSMIKKTLEEEPVGESTVSKSTVTLPDGTPVSVTSTTTKVGNTWTTTTTTNYGSSTTTTTTTTSAGGS [r16_476_JUSTAS]”, the “folding stability dG unfold” value in data set [1] was -0.638 ± 0.21 kcal/mol; in data set [2], 0.419 ± 0.11 kcal/mol; in data set [3], 0.156 ± 0.15 kcal/mol.

Regarding “SAGGGSMTTVRLTREINLPSSVSDEEIIEEIKEELPENYEILEVKIEKDPKTGKYYIEAEVKIPKLGSAGGS [r16_396_JUSTAS]”, the “folding stability dG unfold” value in data set [1] is 0.904 ± 0.027 kcal/mol; in data set [2] it was 2.269 ± 0.02 kcal/mol; in data set [3], 1.88 ± 0.056 kcal/mol.

For “SAGGGSSSLPAVPVSVETFTFPYKTEEEAKAAAEELAKKLEAEDGKPVKVEVSFDPATGTATVTITVVSAGG [r13_517_JUSTAS]”, the results for the “folding stability dG unfold” value in data set [1], in data set [2] and in data set [3] were 4.2 ± 0.16 kcal/mol, 3.791 ± 0.036 kcal/mol and 3.815 ± 0.035 kcal/mol, respectively.

Consider “SAGGGSSSTTLTLREVTEVIVIPVPPEEEELAEELAKKYESQGIKVELERLPDGTWKLTLTYYRGVSLSAGG [r13_702_JUSTAS]”, for which the results for the “folding stability dG unfold” value in data set [1], in data set [2] and in data set [3] were 1.15 ± 0.11 kcal/mol, 0.827 ± 0.15 kcal/mol and 1.03 ± 0.081 kcal/mol, respectively.

Consider “SAGGGSSVLSETVSVDPNNVTTTTTTYKAGDTTSTTTTTTTTTPPVPNLPLPPPPPVSPEAIALGLLLSAGG [r13_760_JUSTAS]”, for which the “folding stability dG unfold” value was 0.648 ± 0.052 kcal/mol in data set [1], -0.0352 ± 0.18 kcal/mol in data set [2] and 0.481 ± 0.059 kcal/mol in data set [3].

Turning to “SAGGGSSYTLLSESTSTDPATGATLTTTTYRAPDGTIYYDSTLTAPDGTTTGTATAVDPDGTPVTIALSAGG [r13_573_JUSTAS]”, the entries for the “folding stability dG unfold” value in data set [1], in data set [2] and in data set [3] were 1.32 ± 0.035 kcal/mol, 1.39 ± 0.12 kcal/mol and 1.41 ± 0.1 kcal/mol, respectively.

In the case of “SAGGGSTSTSTSTSTDPATGATTTTTTTTVPTPDGSGTVTTTTTTVPGAAPDTDTAPVTTTTTTTPTPSAGG [r13_715_JUSTAS]”, the “folding stability dG unfold” value in data set [1] was found to be 2.49 ± 0.1 kcal/mol; in data set [2], 2.14 ± 0.086 kcal/mol; in data set [3], 2.32 ± 0.21 kcal/mol.

As to “SAGGGSTVTTTTPDGTSVSTTTLPDGTVTATATYPDSTVSTTYDPATNTTTVTTTSGGTTVATTTVAASAGG [r13_748_JUSTAS]”, the “folding stability dG unfold” value in data set [1] was 2.48 ± 0.11 kcal/mol; in data set [2] it was 1.39 ± 0.031 kcal/mol; in data set [3] it was 1.89 ± 0.065 kcal/mol.

Turning to “SAGGGSVSITLELEEEEEIEEIVNEKGIPEPLEKRIKKKVTITISPPPTLSSSSSVTGLAEKAIEEKSAGGS [r16_359_JUSTAS]”, the “folding stability dG unfold” value was -0.425 ± 0.22 kcal/mol in data set [1], 0.511 ± 0.069 kcal/mol in data set [2] and 0.101 ± 0.31 kcal/mol in data set [3].

Take “SAGGGSVSVTPVKEIPGPGTTTLYRETHPDDRTVLITYNPATGTVTVTTYKGNTKTSTTTYNTPESLSAGGS [r16_457_JUSTAS]”: the “folding stability dG unfold” value in data set [1] stood at 1.05 ± 0.035 kcal/mol; in data set [2], 1.53 ± 0.13 kcal/mol; in data set [3], 1.42 ± 0.098 kcal/mol.

With “SAGGGSYTIVVELGDKKVVFEIDKEEAVEEAVAKLPELGLEVEVLKKEKVLNEDGKPSVLVEVKVKPSAGGS [r8_336_TrMRF]”, the “folding stability dG unfold” value in data set [1] was -0.663 ± 0.17 kcal/mol; in data set [2], 1.12 ± 0.059 kcal/mol; in data set [3], 0.631 ± 0.1 kcal/mol.

As for “SAGGGTYIEIKVTYSDGTTETFTVPAKPEDIETVVKEIEDKLKELGGTITSIKIENGKITIEATIPDSAGGS [r16_662_TrMRF]”, the “folding stability dG unfold” value in data set [1] came to 2.41 ± 0.19 kcal/mol; in data set [2], 3.3 ± 0.087 kcal/mol; in data set [3], 3.06 ± 0.18 kcal/mol.

“SAGGHHMTIETFEEPDKLTVVVDGDDPEATREYLLQKVKEESSRKPVKVTFTEDPNGKLTITFDLKEESAGG [r13_158_JUSTAS]”: the results for the “folding stability dG unfold” value in data set [1], in data set [2] and in data set [3] were -0.568 ± 0.26 kcal/mol, -0.186 ± 0.34 kcal/mol and -0.17 ± 0.34 kcal/mol, respectively.

Consider “SAGGHTIMFPVKSPEQARDEIRDFARDQGLPIEPEDITIEQHEFKDPENGKKYRFFEITIDVTLKPPSAGGS [r16_587_TrROS]”, for which the results for the “folding stability dG unfold” value in data set [1], in data set [2] and in data set [3] were 0.0514 ± 0.056 kcal/mol, 1.49 ± 0.11 kcal/mol and 1.02 ± 0.15 kcal/mol, respectively.

As to “SAGGIEEAIKEGKTVIIRVKVIDKETGKEYERTIEVPANEEISLEELLKALLPPGYEVEIEVVELEPSAGGS [r8_127_TrROS_Hall]”, the “folding stability dG unfold” value was 3.78 ± 0.33 kcal/mol in data set [1], 3.03 ± 0.51 kcal/mol in data set [2] and 3.65 ± 0.4 kcal/mol in data set [3].
